Data taken from EP4796565A1, “SYNTHESIZED ANTI-CANCER LIPOPEPTIDE AND USE THEREOF” (Yongzhou Zhonggu Biotechnology Co., Ltd., priority 2023, dated 2025).

How the values were obtained:
[1] = system: A549 cells; experiment: ROS levels (DHE reagent) and cell viability by flow cytometry; type: cell-based, human; conditions: for DHE reagent (Geometric mean) Mean: ROS level
Protocol: In addition to inducing higher levels of apoptosis compared to the CIGB-300 peptide, the lipopeptide also triggered greater reactive oxygen species (ROS) production in A549 cells after 2 hours of incubation with the antioxidant N-acetyl-L-cysteine (NAC), as analyzed by flow cytometry (Table 2). The elevated ROS levels were correlated with the stronger inhibitory effect of the lipopeptide on cell viability. Table 2: ROS levels induced by the lipopeptide and the CIGB-300 peptide in A549 cells

[2] = system: A431; experiment: Tumor cell viability, Alamar Blue; type: cell-based, human; conditions: A431, Malignant, Vulvar epidermoid carcinoma; 48 hours of incubation
Protocol: (§1) All human tumor cells used in the present application were obtained from the American Type Culture Collection (ATCC, Manassas, VA, USA) and cultured in RPMI 1640 medium (Gibco) supplemented with 10% (v/v) fetal bovine serum and gentamicin (50 µg/ml) at 37 °C in a 5% CO2 atmosphere. The effects of the lipopeptide and the CIGB-300 peptide on tumor cell viability were assessed using Alamar Blue reagent (Life Technologies, Carlsbad, CA, USA). Cells were seeded in flatbottom 96-well plates (2×10^5 cells/mL, 200 µL/well) and incubated for 24 hours, followed by treatment with the lipopeptide and the CIGB-300 peptide serially diluted from 100 to 3.12 µM at a 1:2 ratio. After 48 hours of incubation, 10% (v/v) Alamar Blue was added, and the cell suspension was incubated for an additional 4 hours. Fluorescence intensity in the microplates was measured, and IC50 values were calculated using CalcuSyn software (version 2.1) (Biosoft, Cambridge, UK).

[3] = system: A549; experiment: Tumor cell viability, Alamar Blue; type: cell-based, human; conditions: A549, Malignant, NSCLC; 48 hours of incubation
Protocol: as §1

[4] = system: Hep-2; experiment: Tumor cell viability, Alamar Blue; type: cell-based, human; conditions: Hep-2, Malignant, Laryngeal squamous cell carcinoma; 48 hours of incubation
Protocol: as §1

[5] = system: HepG2; experiment: Tumor cell viability, Alamar Blue; type: cell-based, human; conditions: HepG2, Malignant, Hepatocellular carcinoma; 48 hours of incubation
Protocol: as §1

[6] = system: NCI-H125; experiment: Tumor cell viability, Alamar Blue; type: cell-based, human; conditions: NCI-H125, Malignant, NSCLC; 48 hours of incubation
Protocol: as §1

[7] = system: NCI-H226; experiment: Tumor cell viability, Alamar Blue; type: cell-based, human; conditions: NCI-H226, Malignant, NSCLC; 48 hours of incubation
Protocol: as §1

[8] = system: NCI-H460; experiment: Tumor cell viability, Alamar Blue; type: cell-based, human; conditions: NCI-H460, Malignant, NSCLC; 48 hours of incubation
Protocol: as §1

[9] = system: NCI-H522; experiment: Tumor cell viability, Alamar Blue; type: cell-based, human; conditions: NCI-H522, Malignant, NSCLC; 48 hours of incubation
Protocol: as §1

[10] = system: NCI-H82; experiment: Tumor cell viability, Alamar Blue; type: cell-based, human; conditions: NCI-H82, Malignant, SCLC; 48 hours of incubation
Protocol: as §1

[11] = system: PC3; experiment: Tumor cell viability, Alamar Blue; type: cell-based, human; conditions: PC3, Malignant, Prostate cancer; 48 hours of incubation
Protocol: as §1

[12] = system: SK-MES1; experiment: Tumor cell viability, Alamar Blue; type: cell-based, human; conditions: SK-MES1, Malignant, NSCLC; 48 hours of incubation
Protocol: as §1

[13] = system: SW948; experiment: Tumor cell viability, Alamar Blue; type: cell-based, human; conditions: SW948, Malignant, Colon adenocarcinoma; 48 hours of incubation
Protocol: as §1

[14] = system: U87; experiment: Tumor cell viability, Alamar Blue; type: cell-based, human; conditions: U87, Malignant, Glioblastoma; 48 hours of incubation
Protocol: as §1

[15] = system: MRC-5; experiment: Cell viability, Alamar Blue (benign cells); type: cell-based; conditions: MRC-5, Benign, Lung fibroblasts; 48 hours of incubation
[16] = system: RR-805; experiment: Cell viability, Alamar Blue (benign cells); type: cell-based; conditions: RR-805, Benign, Renal primary fibroblasts; 48 hours of incubation
[17] = molecular target: recombinant CK2α; experiment: cell-based or functional assay
[18] = molecular target: Arginyl-tRNA-protein transferase 1 (Homo sapiens, UniProt O95260)
Sequence of Arginyl-tRNA-protein transferase 1 (O95260 whole entry): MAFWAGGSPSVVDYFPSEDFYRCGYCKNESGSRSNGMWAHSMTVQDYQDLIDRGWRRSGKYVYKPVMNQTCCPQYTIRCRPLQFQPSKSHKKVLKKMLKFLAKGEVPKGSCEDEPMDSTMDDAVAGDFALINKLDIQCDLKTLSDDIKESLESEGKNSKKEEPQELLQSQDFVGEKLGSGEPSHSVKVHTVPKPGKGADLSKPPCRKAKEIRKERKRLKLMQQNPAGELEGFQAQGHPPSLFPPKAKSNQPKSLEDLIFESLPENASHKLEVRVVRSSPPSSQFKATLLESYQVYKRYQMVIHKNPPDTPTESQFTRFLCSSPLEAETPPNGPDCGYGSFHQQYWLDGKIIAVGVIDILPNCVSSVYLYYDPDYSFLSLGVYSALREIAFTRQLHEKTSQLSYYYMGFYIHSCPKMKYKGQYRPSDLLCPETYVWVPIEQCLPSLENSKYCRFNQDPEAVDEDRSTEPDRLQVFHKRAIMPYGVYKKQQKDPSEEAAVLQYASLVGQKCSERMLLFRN

[19] = molecular target: Calponin-3 (Homo sapiens) (UniProt Q15417)
Sequence of Calponin-3 (Homo sapiens) (Q15417 whole entry): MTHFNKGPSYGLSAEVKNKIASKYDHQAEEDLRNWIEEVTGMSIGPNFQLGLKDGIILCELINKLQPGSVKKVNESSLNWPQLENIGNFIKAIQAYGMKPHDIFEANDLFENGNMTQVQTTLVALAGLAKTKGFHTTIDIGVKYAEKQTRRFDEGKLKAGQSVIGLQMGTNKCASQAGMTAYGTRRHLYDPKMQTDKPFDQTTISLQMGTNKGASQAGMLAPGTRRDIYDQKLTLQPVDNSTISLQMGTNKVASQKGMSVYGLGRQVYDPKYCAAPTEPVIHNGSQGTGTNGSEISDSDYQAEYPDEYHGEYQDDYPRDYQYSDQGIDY

[20] = molecular target: Cleavage stimulation subunit 3 (Homo sapiens) (UniProt Q12996)
Sequence of Cleavage stimulation subunit 3 (Homo sapiens) (Q12996 2-717 limits assumed): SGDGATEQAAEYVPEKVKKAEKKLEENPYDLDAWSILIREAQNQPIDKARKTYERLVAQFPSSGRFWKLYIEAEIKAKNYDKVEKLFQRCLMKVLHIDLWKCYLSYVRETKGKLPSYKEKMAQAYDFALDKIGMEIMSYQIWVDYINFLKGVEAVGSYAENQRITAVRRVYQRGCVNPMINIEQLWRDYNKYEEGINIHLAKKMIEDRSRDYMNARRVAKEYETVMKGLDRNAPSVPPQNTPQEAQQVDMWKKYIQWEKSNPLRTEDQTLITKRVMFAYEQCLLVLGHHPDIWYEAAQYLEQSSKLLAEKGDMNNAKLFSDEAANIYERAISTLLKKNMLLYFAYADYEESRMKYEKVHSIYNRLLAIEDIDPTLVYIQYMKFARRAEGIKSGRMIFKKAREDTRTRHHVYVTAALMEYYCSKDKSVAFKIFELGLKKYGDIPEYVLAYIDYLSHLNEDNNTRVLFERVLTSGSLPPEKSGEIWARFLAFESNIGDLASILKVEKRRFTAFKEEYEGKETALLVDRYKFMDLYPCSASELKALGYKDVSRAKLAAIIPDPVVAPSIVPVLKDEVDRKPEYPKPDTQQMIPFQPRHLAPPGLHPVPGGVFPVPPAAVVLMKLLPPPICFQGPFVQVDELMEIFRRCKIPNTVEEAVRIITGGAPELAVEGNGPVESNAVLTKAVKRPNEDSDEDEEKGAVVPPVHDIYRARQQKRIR

[21] = molecular target: Collagen alpha-1(V) chain (Homo sapiens, UniProt P20908)
[22] = molecular target: Cullin-1 (Homo sapiens, UniProt Q13616)
Sequence of Cullin-1 (Q13616 whole entry): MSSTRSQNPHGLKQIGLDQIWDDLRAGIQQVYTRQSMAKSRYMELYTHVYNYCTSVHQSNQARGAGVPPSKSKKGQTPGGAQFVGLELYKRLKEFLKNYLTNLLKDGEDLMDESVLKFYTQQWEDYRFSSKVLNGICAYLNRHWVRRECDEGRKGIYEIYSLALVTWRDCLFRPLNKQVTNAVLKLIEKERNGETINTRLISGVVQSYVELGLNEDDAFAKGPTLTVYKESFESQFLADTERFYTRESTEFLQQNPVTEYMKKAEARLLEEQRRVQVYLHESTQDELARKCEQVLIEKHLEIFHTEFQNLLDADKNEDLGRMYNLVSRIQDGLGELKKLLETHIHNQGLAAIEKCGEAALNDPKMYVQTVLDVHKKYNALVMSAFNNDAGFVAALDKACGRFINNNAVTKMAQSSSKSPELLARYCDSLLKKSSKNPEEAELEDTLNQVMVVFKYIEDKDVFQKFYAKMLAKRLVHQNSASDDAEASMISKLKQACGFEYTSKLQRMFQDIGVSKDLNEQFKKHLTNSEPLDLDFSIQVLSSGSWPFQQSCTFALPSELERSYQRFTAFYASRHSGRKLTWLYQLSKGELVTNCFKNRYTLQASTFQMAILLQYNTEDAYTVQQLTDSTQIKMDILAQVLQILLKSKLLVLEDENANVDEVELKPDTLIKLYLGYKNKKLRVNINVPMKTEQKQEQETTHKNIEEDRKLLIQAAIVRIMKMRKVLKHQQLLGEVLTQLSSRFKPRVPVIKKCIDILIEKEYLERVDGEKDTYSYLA

[23] = molecular target: Gem-associated protein 2 (Homo sapiens) (UniProt O14893)
Sequence of Gem-associated protein 2 (Homo sapiens) (O14893 whole entry): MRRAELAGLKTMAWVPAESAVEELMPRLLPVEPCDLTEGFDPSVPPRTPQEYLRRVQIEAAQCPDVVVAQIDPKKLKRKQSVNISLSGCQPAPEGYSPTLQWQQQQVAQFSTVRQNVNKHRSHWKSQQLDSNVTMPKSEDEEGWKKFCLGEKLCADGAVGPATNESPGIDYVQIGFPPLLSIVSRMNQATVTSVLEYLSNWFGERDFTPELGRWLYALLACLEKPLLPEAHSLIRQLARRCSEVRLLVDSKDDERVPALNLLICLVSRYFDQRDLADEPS

[24] = molecular target: High mobility group protein HMGI-C (Homo sapiens) (UniProt P52926)
Sequence of High mobility group protein HMGI-C (Homo sapiens) (P52926 2-109 limits assumed): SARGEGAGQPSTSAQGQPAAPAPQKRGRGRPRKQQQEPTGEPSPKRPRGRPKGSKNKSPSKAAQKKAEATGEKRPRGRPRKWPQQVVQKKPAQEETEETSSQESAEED

[25] = molecular target: Histone H2A type 2-B (Homo sapiens, UniProt Q8IUE6)
[26] = molecular target: Replication protein A 32 kDa subunit (Homo sapiens, UniProt P15927)
Sequence of Replication protein A 32 kDa subunit (P15927 whole entry): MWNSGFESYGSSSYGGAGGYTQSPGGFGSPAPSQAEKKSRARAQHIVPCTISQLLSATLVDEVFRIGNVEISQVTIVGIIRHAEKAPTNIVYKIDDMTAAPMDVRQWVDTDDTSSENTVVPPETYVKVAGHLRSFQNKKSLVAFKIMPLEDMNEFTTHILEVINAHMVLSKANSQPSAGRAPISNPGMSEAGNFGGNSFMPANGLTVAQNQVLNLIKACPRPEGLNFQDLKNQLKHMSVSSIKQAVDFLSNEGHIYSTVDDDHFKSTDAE

[27] = molecular target: Serine/arginine-rich splicing factor 8 (Homo sapiens) (UniProt Q9BRL6)
Sequence of Serine/arginine-rich splicing factor 8 (Homo sapiens) (Q9BRL6 2-282 limits assumed): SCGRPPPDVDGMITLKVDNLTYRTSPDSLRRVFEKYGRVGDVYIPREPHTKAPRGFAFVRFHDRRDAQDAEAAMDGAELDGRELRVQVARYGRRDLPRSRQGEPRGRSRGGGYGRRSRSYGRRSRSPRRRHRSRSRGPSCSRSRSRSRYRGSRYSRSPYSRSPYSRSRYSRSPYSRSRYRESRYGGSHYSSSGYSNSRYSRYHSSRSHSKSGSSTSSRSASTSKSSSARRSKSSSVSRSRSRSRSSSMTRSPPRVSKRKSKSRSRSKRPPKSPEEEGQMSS

[28] = molecular target: Surfeit locus protein 2 (Homo sapiens, UniProt Q15527)
Sequence of Surfeit locus protein 2 (Q15527 whole entry): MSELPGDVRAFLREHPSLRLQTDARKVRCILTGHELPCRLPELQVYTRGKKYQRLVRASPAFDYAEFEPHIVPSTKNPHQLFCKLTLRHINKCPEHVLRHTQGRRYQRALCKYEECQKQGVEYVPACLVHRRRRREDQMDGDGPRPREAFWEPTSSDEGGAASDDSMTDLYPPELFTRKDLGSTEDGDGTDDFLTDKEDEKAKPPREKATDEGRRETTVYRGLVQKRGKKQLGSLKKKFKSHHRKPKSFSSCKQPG

[29] = molecular target: U6 snRNA-associated Sm-like protein LSm8 (Homo sapiens) (UniProt O95777)
Sequence of U6 snRNA-associated Sm-like protein LSm8 (Homo sapiens) (O95777 2-96 limits assumed): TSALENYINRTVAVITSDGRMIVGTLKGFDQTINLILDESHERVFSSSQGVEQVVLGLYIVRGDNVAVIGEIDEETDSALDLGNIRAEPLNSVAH

[30] = molecular target: Xaa-Pro aminopeptidase 1 (Homo sapiens, UniProt Q9NQW7)
Sequence of Xaa-Pro aminopeptidase 1 (Q9NQW7 2-623 limits assumed): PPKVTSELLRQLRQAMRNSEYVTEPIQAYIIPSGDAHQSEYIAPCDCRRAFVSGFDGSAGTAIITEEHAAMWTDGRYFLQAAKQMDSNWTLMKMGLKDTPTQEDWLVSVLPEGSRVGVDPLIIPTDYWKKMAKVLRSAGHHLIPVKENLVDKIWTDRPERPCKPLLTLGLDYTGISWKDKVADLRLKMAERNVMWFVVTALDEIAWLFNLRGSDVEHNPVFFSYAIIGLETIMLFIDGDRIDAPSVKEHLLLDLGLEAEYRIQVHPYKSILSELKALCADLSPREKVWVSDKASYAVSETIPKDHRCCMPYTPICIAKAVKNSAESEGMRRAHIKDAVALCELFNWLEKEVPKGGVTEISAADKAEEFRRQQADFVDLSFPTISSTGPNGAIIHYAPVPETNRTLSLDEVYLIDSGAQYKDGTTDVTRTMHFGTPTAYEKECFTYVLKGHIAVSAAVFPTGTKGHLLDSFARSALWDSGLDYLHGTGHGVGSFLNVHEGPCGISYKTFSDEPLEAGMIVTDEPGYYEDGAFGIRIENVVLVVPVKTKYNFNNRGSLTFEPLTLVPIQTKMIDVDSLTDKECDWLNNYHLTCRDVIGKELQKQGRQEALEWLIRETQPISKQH

[31] = With NAC, 2 hours of incubation

In the case of `OO` [H2O2], the “Cell viability (%) Mean” value [1, 31] is reported as 94.9%, the “DHE reagent (Geometric mean) Mean” value [1, 31] is reported as 4175 and the “Cell viability (%) Mean” value ([1]; Without NAC) is reported as 94.0%. For the same compound, the “DHE reagent (Geometric mean) Mean” value ([1]; Without NAC) was 4335.
`CSCC[C@@H]1NC(=O)[C@H](Cc2c[nH]c3ccccc23)NC(=O)[C@@H](NC(=O)CCNC(=O)[C@H](CCC(N)=O)NC(=O)[C@@H]2CCCN2C(=O)[C@@H]2CCCN2C(=O)[C@H](CCCNC(=N)N)NC(=O)[C@H](CCCNC(=N)N)NC(=O)[C@H](CCCNC(=N)N)NC(=O)[C@H](CCC(N)=O)NC(=O)[C@H](CCCNC(=N)N)NC(=O)[C@H](CCCNC(=N)N)NC(=O)[C@H](CCCCN)NC(=O)[C@H](CCCCN)NC(=O)[C@H](CCCNC(=N)N)NC(=O)CN)CSSC[C@@H](C(N)=O)NC(=O)[C@H]([C@@H](C)O)NC(=O)CNC(=O)[C@H](CC(C)C)NC(=O)[C@H](Cc2c[nH]cn2)NC(=O)[C@H](CCCNC(=N)N)NC(=O)[C@@H]2CCCN2C(=O)[C@H](CO)NC1=O` [The CIGB-300 peptide, reference compound] was tested, and the IC50 [2] was 90.7 ± 4 µM, the IC50 [3] was 180 ± 30 µM and the IC50 [4] was 30.7 ± 2 µM. For the same compound, the IC50 [5] was 128 ± 44 µM, the IC50 [6] was 76.3 ± 2 µM and the IC50 [7] was 70.8 µM. It also gave an IC50 [8] of 30 ± 9 µM, an IC50 [9] of 70 µM and an IC50 [10] of 39.7 ± 11 µM. For the same compound, the IC50 [11] was 170 ± 5 µM, the IC50 [12] was 150 ± 7 µM and the IC50 [13] was 143.1 ± 1 µM. The IC50 [14] was 154 ± 15 µM, the IC50 [15] was 198 ± 8 µM and the IC50 [16] was 230 ± 6 µM.
In the case of CIGB-300 peptide, the CK2 enzyme activity (CPM x10^3) at 0.00 µM peptide (baseline without peptide) [17] is reported as 170000 CPM, the CK2 enzyme activity (CPM x10^3) at 0.097 µM peptide [17] is reported as 171000 CPM and the CK2 enzyme activity (CPM x10^3) at 0.195 µM peptide [17] is reported as 169000 CPM. The CK2 enzyme activity (CPM x10^3) at 0.39 µM peptide [17] was 162000 CPM, the CK2 enzyme activity (CPM x10^3) at 0.781 µM peptide [17] was 158000 CPM and the CK2 enzyme activity (CPM x10^3) at 1.56 µM peptide [17] was 109000 CPM. It also gave a CK2 enzyme activity (CPM x10^3) at 3.125 µM peptide [17] of 92000 CPM, a CK2 enzyme activity (CPM x10^3) at 6.25 µM peptide [17] of 61000 CPM and a CK2 enzyme activity (CPM x10^3) at 12.5 µM peptide [17] of 31000 CPM. For the same compound, the CK2 enzyme activity (CPM x10^3) at 25 µM peptide [17] was 19000 CPM and the CK2 enzyme activity (CPM x10^3) at 50 µM peptide [17] was 4000 CPM.
For “synthetic anti-cancer lipopeptide (decanoyl-CIGB-300)”, the Abundance ratio of lipopeptide/CIGB-300 [18] was 2.01, the Abundance ratio of lipopeptide/CIGB-300 [19] was 2.37 and the Abundance ratio of lipopeptide/CIGB-300 [20] was 5.12. For the same compound, the Abundance ratio of lipopeptide/CIGB-300 [21] was 2.97, the Abundance ratio of lipopeptide/CIGB-300 [22] was 2.3 and the Abundance ratio of lipopeptide/CIGB-300 [23] was 2.62. It also gave an Abundance ratio of lipopeptide/CIGB-300 [24] of 3.88, an Abundance ratio of lipopeptide/CIGB-300 [25] of 2.19 and an Abundance ratio of lipopeptide/CIGB-300 [26] of 2.1. The Abundance ratio of lipopeptide/CIGB-300 [27] was 2.86, the Abundance ratio of lipopeptide/CIGB-300 [28] was 2.05 and the Abundance ratio of lipopeptide/CIGB-300 [29] was 3.31. For the same compound, the Abundance ratio of lipopeptide/CIGB-300 [30] was 2.26.
